From the Immune Epitope Database (IEDB) come the findings set out here.

Bounds are passed on as bounds.

One assay addresses HLA-A*03:01. In words: IEDB peptide-MHC binding, purified MHC/competitive/radioactivity; filed as Kd, often an IC50 or EC50 that approximates it; ≥ and ≤ were set here for values at or beyond the usual limits of such assays. The settings on record: source organism: Lassa virus Josiah.
For GVVRVWDVK, the equilibrium dissociation constant (Kd) (commonly the concentration at which binding is half-saturated) stood at 5790 nM.

Staying with this assay, now noted: source organism: Mammarenavirus juninense.
Take NKQYIHCFRK: the dissociation constant Kd stood at 973 nM.

Still in this assay, the particulars now being: source organism: Mammarenavirus tacaribeense.
With QYIHCFRKPH, the dissociation constant (Kd) was not below 70000 nM.

Still in this assay, the particulars now being: source organism: SARS coronavirus Tor2.
For the sequence AQGLVASIK, the Kd is 654 nM.
Turning to LVLLILMTAR, the Kd worked out at 3780 nM.
On to GANYLGKPK, for which the dissociation constant Kd stood at 510 nM.
The same measure, in the same setting: for YVKSPKFSK the value was 6980 nM; for KTVQFCDAMR, 1790 nM.
Same read-out and setting: the result for RVYANLGER reads 18.6 nM.
As to TLQGPPGTGK, the Kd amounted to 282 nM.
As for ATSRTLSYYK, the Kd stood at 3.32 nM.
Same read-out and setting: the result for KVNSTLEQY reads 58.8 nM.
Turning to IQFMMSRRR, the Kd is 353 nM.
The same measure, in the same setting: for AVLDMCAALK the value was 12.9 nM.
With KFVFPLNSK, the Kd was found to be 170 nM.
With VFAYVGCYNK, the dissociation constant (Kd) is 1530 nM.

The assay is the same for the next values; noted with them: source organism: Vaccinia virus Copenhagen.
For NTIVFGIYK, the Kd is not below 28900 nM.

Staying with this assay, now noted: source organism: Vaccinia virus WR.
Consider AAKYVEHDPR, for which the Kd is not below 31000 nM.
As for HIASKINNNR, the dissociation constant (Kd) is 1960 nM.
Turning to ELYDTSPTK, the Kd was determined as 10.5 nM.
As for IISEEYLSK, the Kd came out at 103 nM.
For FSLESDSIK, the equilibrium dissociation constant (Kd) was 1570 nM.
On to MVDELVTRK, for which the Kd was found to be 68.9 nM.
Take TIAGGVCYY: the equilibrium dissociation constant (Kd) was 110 nM.
For VLNRHAITMY, the equilibrium dissociation constant (Kd) was 94.4 nM.
With LIKFISDNKK, the Kd worked out at 142 nM.
As for LTILDDNLY, the Kd stood at 11200 nM.
Same read-out and setting: the result for TQFNFNGHTY reads 218 nM; that for IILSKIPYLR, 40.9 nM.
Regarding KFTILEYLY, the Kd is 7090 nM.
Turning to ITTDDLVKSY, the Kd was not below 70100 nM.
For the sequence PTFQLLNMIK, the dissociation constant (Kd) came out at 9050 nM.
Consider DSFLRKIGDK, for which the Kd was not below 59100 nM.
Regarding IQTSVNTVVR, the Kd is not below 39700 nM.
Turning to PVETLFGSY, the dissociation constant (Kd) was not below 38900 nM.
SMDVLAEKKY: the dissociation constant Kd is not below 28500 nM.
As for IINFTISMRY, the Kd worked out at 35.3 nM.
Still for that read-out and setting: for PFKVINLPK the value was 9490 nM.
KIVNGVLSR: the Kd was 328 nM.
Turning to EQQQSFMPK, the equilibrium dissociation constant (Kd) is 2120 nM.
Take MTLVPVLEK: the dissociation constant Kd was found to be 25.3 nM.
As for WLSMTDEMR, the Kd is not below 78000 nM.
Same read-out and setting: the result for STQSVLCVK reads 149 nM; that for IINDKGKQY, 1940 nM.
For the sequence EALEYLSELK, the Kd stood at 461 nM.
In the case of ITDMINASLK, the Kd amounted to 151 nM.
For the sequence ILKKLSSIK, the equilibrium dissociation constant (Kd) worked out at 4.69 nM.

The target of the next assay is HLA-A*11:01. The assay is described as above. Conditions: source organism: Lassa virus Josiah.
As to GVVRVWDVK, the dissociation constant (Kd) came to 11.1 nM.

Still in this assay, the particulars now being: source organism: Mammarenavirus juninense.
Take NKQYIHCFRK: the Kd was determined as 652 nM.

The same assay, now with this note: source organism: Mammarenavirus tacaribeense.
For the sequence QYIHCFRKPH, the dissociation constant (Kd) was not below 69700 nM.

Still in this assay, the particulars now being: source organism: SARS coronavirus Tor2.
For AQGLVASIK, the Kd turned out to be 209 nM.
Take LVLLILMTAR: the equilibrium dissociation constant (Kd) came out at 8740 nM.
As to GANYLGKPK, the dissociation constant Kd was 1080 nM.
Same read-out and setting: the result for YVKSPKFSK reads 259 nM.
With KTVQFCDAMR, the Kd came to 267 nM.
Take RVYANLGER: the dissociation constant (Kd) came to 126 nM.
Turning to TLQGPPGTGK, the Kd is 264 nM.
Consider ATSRTLSYYK, for which the dissociation constant (Kd) amounted to 3.16 nM.
As to KVNSTLEQY, the Kd amounted to 445 nM.
On to IQFMMSRRR, for which the dissociation constant (Kd) was 369 nM.
Turning to AVLDMCAALK, the Kd was found to be 6.06 nM.
Still for that read-out and setting: for KFVFPLNSK the value was 1270 nM; for VFAYVGCYNK, 350 nM.

The assay is the same for the next values; noted with them: source organism: Vaccinia virus Copenhagen.
Consider NTIVFGIYK, for which the Kd was found to be 1080 nM.

Staying with this assay, now noted: source organism: Vaccinia virus WR.
As for AAKYVEHDPR, the dissociation constant Kd was not below 39000 nM.
With HIASKINNNR, the Kd worked out at 4030 nM.
For ELYDTSPTK, the dissociation constant Kd was 90.2 nM.
For IISEEYLSK, the Kd worked out at 27 nM.
Take FSLESDSIK: the equilibrium dissociation constant (Kd) turned out to be 565 nM.
MVDELVTRK: the Kd turned out to be 161 nM.
The same measure, in the same setting: for TIAGGVCYY the value was 94.7 nM.
With VLNRHAITMY, the dissociation constant (Kd) turned out to be 966 nM.
LIKFISDNKK: the Kd is 1010 nM.
On to LTILDDNLY, for which the Kd was 3240 nM.
The same measure, in the same setting: the result for TQFNFNGHTY reads 965 nM.
On to IILSKIPYLR, for which the Kd came to 40.7 nM.
Regarding KFTILEYLY, the dissociation constant Kd turned out to be 2180 nM.
On the same count and under the same terms, for ITTDDLVKSY the value was 11000 nM; for PTFQLLNMIK, 93.8 nM.
The same measure, in the same setting: for DSFLRKIGDK the value was 11700 nM; for IQTSVNTVVR, 14200 nM.
On to PVETLFGSY, for which the Kd was 2200 nM.
SMDVLAEKKY: the dissociation constant (Kd) was not below 10000 nM.
Regarding IINFTISMRY, the Kd is 1.71 nM.
Still for that read-out and setting: the result for PFKVINLPK reads 665 nM; that for KIVNGVLSR, 89.2 nM.
On to EQQQSFMPK, for which the Kd stood at 11.3 nM.
As to MTLVPVLEK, the Kd came to 6.66 nM.
For the sequence WLSMTDEMR, the Kd was not below 46300 nM.
Regarding STQSVLCVK, the Kd amounted to 0.756 nM.
For the sequence IINDKGKQY, the dissociation constant (Kd) worked out at 8380 nM.
The same measure, in the same setting: for EALEYLSELK the value was 225 nM; for ITDMINASLK, 81.2 nM; for ILKKLSSIK, 1090 nM.

The next assay addresses HLA-A*31:01. The description is as above. The settings on record: source organism: Lassa virus Josiah.
Turning to GVVRVWDVK, the Kd is not below 45000 nM.

Still in this assay, the particulars now being: source organism: Mammarenavirus juninense.
With NKQYIHCFRK, the Kd was 128 nM.

The assay is the same for the next values; noted with them: source organism: Mammarenavirus tacaribeense.
Regarding QYIHCFRKPH, the equilibrium dissociation constant (Kd) worked out at 386 nM.

Still in this assay, the particulars now being: source organism: SARS coronavirus Tor2.
For AQGLVASIK, the Kd worked out at 9890 nM.
Same read-out and setting: for LVLLILMTAR the value was 918 nM; for GANYLGKPK, 1480 nM; for YVKSPKFSK, 2320 nM.
As for KTVQFCDAMR, the Kd is 8.65 nM.
The same measure, in the same setting: the result for RVYANLGER reads 6.3 nM; that for TLQGPPGTGK, 3290 nM; that for ATSRTLSYYK, 14.9 nM.
Take KVNSTLEQY: the Kd stood at 2590 nM.
On to IQFMMSRRR, for which the Kd stood at 4.4 nM.
Regarding AVLDMCAALK, the dissociation constant (Kd) was determined as 80.4 nM.
As to KFVFPLNSK, the Kd is 74.4 nM.
Same read-out and setting: for VFAYVGCYNK the value was 184 nM.

The same assay, now with this note: source organism: Vaccinia virus Copenhagen.
For the sequence NTIVFGIYK, the equilibrium dissociation constant (Kd) is not below 33400 nM.

The assay is the same for the next values; noted with them: source organism: Vaccinia virus WR.
Consider AAKYVEHDPR, for which the equilibrium dissociation constant (Kd) is 171 nM.
On to HIASKINNNR, for which the Kd is 959 nM.
For ELYDTSPTK, the Kd is not below 77900 nM.
As for IISEEYLSK, the equilibrium dissociation constant (Kd) was 10100 nM.
Regarding FSLESDSIK, the dissociation constant (Kd) amounted to 960 nM.
Turning to MVDELVTRK, the Kd is 3950 nM.
